Measured values reported in the supplement of paper PMC9112550, “Optimization of the antimicrobial peptide Bac7 by deep mutational scanning” (BMC Biology, 2022).

Tested on: Escherichia coli TOP10
Assay: shrunken log2 fold change of peptide-encoding DNA abundance (4.5 h post-induction vs induction); higher = less antimicrobial activity (less host growth inhibition)
Conditions: time post-induction: 4.5 h; library: site-saturation at positions 5, 18, 19, 20
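Further: peptides expressed intracellularly from a pBAD plasmid library in pooled LB shake-flask culture, induced with 0.3% L-arabinose, DNA abundance read by NGS, three biological replicates, DESeq2 with apeglm shrinkage.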

RRIRNRPPRLPRPRPRPRFKPRP
shrunken log2 fold change: 0.0387

RRIRGRPPRLPRPRPRPQAVPRP
shrunken log2 fold change: 0.295

RRIRHRPPRLPRPRPRPINHPRP
shrunken log2 fold change: -0.97

RRIRGRPPRLPRPRPRPKWQPRP
shrunken log2 fold change: 0.194

RRIRLRPPRLPRPRPRPFRTPRP
shrunken log2 fold change: -0.0778

RRIRMRPPRLPRPRPRPSYHPRP
shrunken log2 fold change: -0.402

RRIRRRPPRLPRPRPRPGWCPRP
shrunken log2 fold change: 0.422

RRIRCRPPRLPRPRPRPMMEPRP
shrunken log2 fold change: -0.105

RRIRVRPPRLPRPRPRPPQNPRP
shrunken log2 fold change: 0.188

RRIRFRPPRLPRPRPRPWQQPRP
shrunken log2 fold change: -0.104

RRIRKRPPRLPRPRPRPVWYPRP
shrunken log2 fold change: 0.0528

RRIRCRPPRLPRPRPRPAVKPRP
shrunken log2 fold change: -0.132

RRIRGRPPRLPRPRPRPDPKPRP
shrunken log2 fold change: 0.649

RRIRLRPPRLPRPRPRPTYVPRP
shrunken log2 fold change: -0.591

RRIRERPPRLPRPRPRPRGEPRP
shrunken log2 fold change: -0.023

RRIRDRPPRLPRPRPRPVFMPRP
shrunken log2 fold change: 0.11

RRIRVRPPRLPRPRPRPAPGPRP
shrunken log2 fold change: 0.472

RRIRKRPPRLPRPRPRPWMQPRP
shrunken log2 fold change: -0.0134

RRIRGRPPRLPRPRPRPVTPPRP
shrunken log2 fold change: 1.24

RRIRTRPPRLPRPRPRPIMGPRP
shrunken log2 fold change: -0.0135

RRIRHRPPRLPRPRPRPMWDPRP
shrunken log2 fold change: -0.0134

RRIRLRPPRLPRPRPRPEGCPRP
shrunken log2 fold change: 0.191

RRIRARPPRLPRPRPRPCDIPRP
shrunken log2 fold change: -0.2

RRIRFRPPRLPRPRPRPPECPRP
shrunken log2 fold change: -0.0973

RRIRLRPPRLPRPRPRPINNPRP
shrunken log2 fold change: -0.705

RRIRPRPPRLPRPRPRPFMGPRP
shrunken log2 fold change: -0.448

RRIRKRPPRLPRPRPRPCMIPRP
shrunken log2 fold change: 0.0302

RRIRFRPPRLPRPRPRPFNCPRP
shrunken log2 fold change: -0.113

RRIRKRPPRLPRPRPRPVALPRP
shrunken log2 fold change: -0.0167

RRIRMRPPRLPRPRPRPHPGPRP
shrunken log2 fold change: 0.293

RRIRVRPPRLPRPRPRPMDYPRP
shrunken log2 fold change: -0.0122

RRIRRRPPRLPRPRPRPFQRPRP
shrunken log2 fold change: 0.608

RRIRERPPRLPRPRPRPSFIPRP
shrunken log2 fold change: -0.906

RRIRHRPPRLPRPRPRPTDAPRP
shrunken log2 fold change: 0.0615

RRIRYRPPRLPRPRPRPTPLPRP
shrunken log2 fold change: 0.0136

RRIRKRPPRLPRPRPRPFYPPRP
shrunken log2 fold change: -0.0703

RRIRSRPPRLPRPRPRPTECPRP
shrunken log2 fold change: -0.00271

RRIRPRPPRLPRPRPRPFCDPRP
shrunken log2 fold change: -0.233

RRIRRRPPRLPRPRPRPCFKPRP
shrunken log2 fold change: -0.236

RRIRPRPPRLPRPRPRPYSVPRP
shrunken log2 fold change: -1.01

RRIRHRPPRLPRPRPRPCCTPRP
shrunken log2 fold change: -0.181

RRIRKRPPRLPRPRPRPACPPRP
shrunken log2 fold change: 0.664

RRIRYRPPRLPRPRPRPAQRPRP
shrunken log2 fold change: -0.0772

RRIRFRPPRLPRPRPRPSIAPRP
shrunken log2 fold change: -0.271

RRIRVRPPRLPRPRPRPMDEPRP
shrunken log2 fold change: 0.422

RRIRARPPRLPRPRPRPAKHPRP
shrunken log2 fold change: 0.558

RRIRQRPPRLPRPRPRPNVEPRP
shrunken log2 fold change: -0.0222

RRIRMRPPRLPRPRPRPTIVPRP
shrunken log2 fold change: -0.0671

RRIRRRPPRLPRPRPRPGWQPRP
shrunken log2 fold change: 0.381

RRIRIRPPRLPRPRPRPGLHPRP
shrunken log2 fold change: -0.000332

RRIRQRPPRLPRPRPRPMHYPRP
shrunken log2 fold change: -0.276

RRIRTRPPRLPRPRPRPFHIPRP
shrunken log2 fold change: 0.0392

RRIRFRPPRLPRPRPRPNCNPRP
shrunken log2 fold change: -0.469

RRIRSRPPRLPRPRPRPSLAPRP
shrunken log2 fold change: 0.164

RRIRKRPPRLPRPRPRPHAIPRP
shrunken log2 fold change: -0.142

RRIRYRPPRLPRPRPRPFVCPRP
shrunken log2 fold change: -0.0345

RRIRMRPPRLPRPRPRPNQQPRP
shrunken log2 fold change: 0.0339

RRIRKRPPRLPRPRPRPCECPRP
shrunken log2 fold change: 0.62

RRIRIRPPRLPRPRPRPDIVPRP
shrunken log2 fold change: -0.906

RRIRLRPPRLPRPRPRPVQGPRP
shrunken log2 fold change: -0.01

RRIRARPPRLPRPRPRPPGSPRP
shrunken log2 fold change: 0.759

RRIRKRPPRLPRPRPRPFPPPRP
shrunken log2 fold change: 0.33

RRIRARPPRLPRPRPRPHKYPRP
shrunken log2 fold change: -0.243

RRIRSRPPRLPRPRPRPFTGPRP
shrunken log2 fold change: -0.261

RRIRRRPPRLPRPRPRPPCYPRP
shrunken log2 fold change: 0.473

RRIRMRPPRLPRPRPRPSDHPRP
shrunken log2 fold change: 0.386

RRIRWRPPRLPRPRPRPSAMPRP
shrunken log2 fold change: 0.252

RRIRSRPPRLPRPRPRPWYTPRP
shrunken log2 fold change: 0.0361

RRIRDRPPRLPRPRPRPAEFPRP
shrunken log2 fold change: 0.149

RRIRSRPPRLPRPRPRPWFEPRP
shrunken log2 fold change: -0.0139

RRIRDRPPRLPRPRPRPRVCPRP
shrunken log2 fold change: 0.372

RRIRCRPPRLPRPRPRPRGEPRP
shrunken log2 fold change: 0.435

RRIRIRPPRLPRPRPRPCPVPRP
shrunken log2 fold change: -0.523

RRIRCRPPRLPRPRPRPFHMPRP
shrunken log2 fold change: -0.36

RRIRERPPRLPRPRPRPHWTPRP
shrunken log2 fold change: -0.0453

RRIRYRPPRLPRPRPRPSWTPRP
shrunken log2 fold change: -1.11

RRIRDRPPRLPRPRPRPDSYPRP
shrunken log2 fold change: -0.0336

RRIRNRPPRLPRPRPRPCHNPRP
shrunken log2 fold change: -0.818

RRIRYRPPRLPRPRPRPMCGPRP
shrunken log2 fold change: -0.17

RRIRTRPPRLPRPRPRPMQYPRP
shrunken log2 fold change: -0.0442

RRIRNRPPRLPRPRPRPRQHPRP
shrunken log2 fold change: -0.103

RRIRVRPPRLPRPRPRPHYMPRP
shrunken log2 fold change: -1.03

RRIRCRPPRLPRPRPRPDASPRP
shrunken log2 fold change: 0.27

RRIRVRPPRLPRPRPRPFLPPRP
shrunken log2 fold change: -0.198

RRIRWRPPRLPRPRPRPHSLPRP
shrunken log2 fold change: -0.262

RRIRSRPPRLPRPRPRPVKKPRP
shrunken log2 fold change: 0.0525

RRIRNRPPRLPRPRPRPYMAPRP
shrunken log2 fold change: -0.0692

RRIRVRPPRLPRPRPRPYVDPRP
shrunken log2 fold change: -0.0757

RRIRQRPPRLPRPRPRPLYRPRP
shrunken log2 fold change: 0.0401

RRIRSRPPRLPRPRPRPHYWPRP
shrunken log2 fold change: -0.519

RRIRERPPRLPRPRPRPVNMPRP
shrunken log2 fold change: -0.139

RRIRHRPPRLPRPRPRPKYNPRP
shrunken log2 fold change: -0.892

RRIRWRPPRLPRPRPRPPENPRP
shrunken log2 fold change: 0.0933

RRIRARPPRLPRPRPRPRYAPRP
shrunken log2 fold change: 0.495

RRIRNRPPRLPRPRPRPEMSPRP
shrunken log2 fold change: -0.0389

RRIRMRPPRLPRPRPRPYVDPRP
shrunken log2 fold change: -0.249

RRIRIRPPRLPRPRPRPRCAPRP
shrunken log2 fold change: 0.204

RRIRKRPPRLPRPRPRPDRTPRP
shrunken log2 fold change: 0.0739

RRIRARPPRLPRPRPRPHLQPRP
shrunken log2 fold change: 0.439

RRIRCRPPRLPRPRPRPFRFPRP
shrunken log2 fold change: -0.83

RRIRVRPPRLPRPRPRPTFDPRP
shrunken log2 fold change: -0.0428

RRIRNRPPRLPRPRPRPPRRPRP
shrunken log2 fold change: 0.518

RRIRMRPPRLPRPRPRPPYCPRP
shrunken log2 fold change: 0.0371

RRIRGRPPRLPRPRPRPKSSPRP
shrunken log2 fold change: 0.508

RRIRFRPPRLPRPRPRPQIEPRP
shrunken log2 fold change: -0.24

RRIRCRPPRLPRPRPRPWQPPRP
shrunken log2 fold change: 0.0636

RRIRCRPPRLPRPRPRPALDPRP
shrunken log2 fold change: 0.356

RRIRFRPPRLPRPRPRPEKCPRP
shrunken log2 fold change: 0.00859

RRIRHRPPRLPRPRPRPRWPPRP
shrunken log2 fold change: 2.25

RRIRFRPPRLPRPRPRPSSKPRP
shrunken log2 fold change: -0.32

RRIRLRPPRLPRPRPRPYYFPRP
shrunken log2 fold change: -0.767

RRIRTRPPRLPRPRPRPWTGPRP
shrunken log2 fold change: -0.352

RRIRPRPPRLPRPRPRPLVWPRP
shrunken log2 fold change: 0.412

RRIRPRPPRLPRPRPRPAMLPRP
shrunken log2 fold change: 0.233

RRIRWRPPRLPRPRPRPKKAPRP
shrunken log2 fold change: 0.149

RRIRERPPRLPRPRPRPRCAPRP
shrunken log2 fold change: 0.228

RRIRKRPPRLPRPRPRPKMRPRP
shrunken log2 fold change: 0.56

RRIRIRPPRLPRPRPRPHIQPRP
shrunken log2 fold change: -0.791

RRIRPRPPRLPRPRPRPKHDPRP
shrunken log2 fold change: -0.0113

RRIRSRPPRLPRPRPRPANMPRP
shrunken log2 fold change: -0.289

RRIRFRPPRLPRPRPRPADLPRP
shrunken log2 fold change: -0.294

RRIRFRPPRLPRPRPRPIANPRP
shrunken log2 fold change: -0.0564

RRIRNRPPRLPRPRPRPPQDPRP
shrunken log2 fold change: 0.0281

RRIRWRPPRLPRPRPRPMKMPRP
shrunken log2 fold change: -0.0851

RRIRERPPRLPRPRPRPECMPRP
shrunken log2 fold change: -0.0491
